Test results published in patent US20110236427A1 (MEDIZINISCHE UNIVERSITAT INNSBRUCK, published 2011).

Assays:
[1] = biological target: T1, endogenous PKCalpha from Jurkat T cell lysates (human, UniProt P17252 2-672); test: GST pull down from Jurkat T cell lysates, immunoblot
T1 construct: Detected by immunoblot with an anti-PKCalpha antibody (UBI) after the GST pull down; also called PKCα
Method: (§1) GST pull down assay: 1×10⁷ Jurkat T cells were lysed in 1 ml lysis buffer (25 mM MES pH6.5, 5 mM NaF, 1 mM Na₃VO₄, 2 mM EDTA, 150 mM NaCl, 0.5% TritonX-100, 50 μg/ml aprotinin and leupeptin). Lysates were precleared for 30 min at 4° C. Thereafter incubation with purified recombinant GST-NR2F6 fusion proteins for 3 h at 4° C., 5× washing in lysis buffer, SDS-PAGE under reducing conditions on Bis/Tris-buffered gels (Novex, San Diego, Calif.) was performed. Proteins were transferred onto a polyvinyl-difluoridon (PVDF) membrane (Millipore, Bedford, Mass.) by semi-dry blotting (90 mA, 80 min, 4° C.). […] Peroxidase-conjugated antibodies (Pierce, Rockford, Ill.) served as secondary reagent (1:5,000). For antigen detection enhanced chemiluminescence was used (Super Signal, Pierce, Rockford, Ill.).

[2] = biological target: T2, endogenous PKCtheta from Jurkat T cell lysates (human, UniProt Q04759 1-706); test: as above
T2 construct: Detected by immunoblot with an anti-PKCtheta antibody (Cell Signalling) after the GST pull down
T2 sequence (Q04759 whole entry): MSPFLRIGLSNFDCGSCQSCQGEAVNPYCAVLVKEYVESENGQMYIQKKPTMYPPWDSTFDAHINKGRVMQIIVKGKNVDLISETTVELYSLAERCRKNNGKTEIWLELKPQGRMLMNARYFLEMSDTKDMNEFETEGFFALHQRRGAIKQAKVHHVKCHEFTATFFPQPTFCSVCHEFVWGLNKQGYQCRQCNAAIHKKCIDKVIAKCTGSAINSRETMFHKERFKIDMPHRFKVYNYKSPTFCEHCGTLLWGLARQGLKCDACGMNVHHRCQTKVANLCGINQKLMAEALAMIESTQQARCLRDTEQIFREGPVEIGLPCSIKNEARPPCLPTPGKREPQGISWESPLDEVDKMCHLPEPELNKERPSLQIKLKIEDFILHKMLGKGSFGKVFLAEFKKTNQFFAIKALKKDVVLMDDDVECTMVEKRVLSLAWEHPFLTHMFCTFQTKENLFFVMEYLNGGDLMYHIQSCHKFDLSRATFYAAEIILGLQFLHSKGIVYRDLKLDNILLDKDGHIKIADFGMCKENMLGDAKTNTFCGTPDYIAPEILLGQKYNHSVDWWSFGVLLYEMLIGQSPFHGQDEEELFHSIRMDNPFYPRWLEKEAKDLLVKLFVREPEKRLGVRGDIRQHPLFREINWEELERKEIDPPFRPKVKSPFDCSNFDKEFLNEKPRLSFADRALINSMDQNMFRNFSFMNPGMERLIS
Method: as §1

B1: GST-NR2F6 fusion protein, full-length, wild-type (other)
chain: MAMVTGGWGGPGGDTNGVDKAGGYPRAAEDDSASPPGAASDAEPGDEERPGLQVDCVVCGDKSSGKHYGVFTCEGCKSFFKRSIRRNLSYTCRSNRDCQIDQHHRNQCQYCRLKKCFRVGMRKEAVQRGRIPHSLPGAVAASSGSPPGSALAAVASGGDLFPGQPVSELIAQLLRAEPYPAAAGRFGAGGGAAGAVLGIDNVCELAARLLFSTVEWARHAPFFPELPVADQVALLRLSWSELFVLNAAQAALPLHTAPLLAAAGLHAAPMAAERAVAFMDQVRAFQEQVDKLGRLQVDSAEYGCLKAIALFTPDACGLSDPAHVESLQEKAQVALTEYVRAQYPSQPQRFGRLLLRLPALRAVPASLISQLFFMRLVGKTPIETLIRDMLLSGSTFNWPYGSGQ
notes: Purified recombinant fusion protein, used as bait in the GST pull down from Jurkat T cell lysates and as substrate in the in vitro kinase assay; also called recombinant NR2F6; purified recombinant GST-NR2F6; not shown: GST tag; N-terminal position inferred from the name GST-NR2F6
Q: Does B1 bind [1]?
A: binds

Q: Does B1 bind [2]?
A: binds
